From the Immune Epitope Database (IEDB)

Columns and labels:
Test in all cases: IEDB peptide-MHC binding, purified MHC/competitive/radioactivity; ≥ and ≤ were set here for values at or beyond the usual limits of such assays
Conditions in all cases: source organism: Hepacivirus hominis
HLA-A*03:01 = target: HLA-A*03:01
HLA-A*11:01 = target: HLA-A*11:01
HLA-A*02:01 = target: HLA-A*02:01

Row | Sequence | IC50 (HLA-A*03:01) [nM] | further results
1 | AVCTRGVAK | 385 | 
2 | HLHAPTGSGK | 17 | 
3 | HLIFCHSKK | 400 | 
4 | HLIFCHSKKK | 385 | 
5 | RLLAPITAY | 4 | 
6 | SVPAEILRK |  | IC50 (HLA-A*11:01): 13 nM
7 | TLHGPTPLLY | 112 | 
8 | VLAALAAYCL |  | IC50 (HLA-A*02:01): 100 nM
9 | WMNSTGFTK | 189 | 
